Measurements published in the Immune Epitope Database (IEDB).

Key:
HLA-B*57:01 [1] = assay: IEDB peptide-MHC binding, purified MHC/competitive/radioactivity; filed as Kd, often an IC50 or EC50 that approximates it; ≥ and ≤ were set here for values at or beyond the usual limits of such assays
HLA-A*29:02 [2] = assay: IEDB peptide-MHC binding, purified MHC/competitive/fluorescence; filed as Kd, often an IC50 or EC50 that approximates it; ≥ and ≤ were set here for values at or beyond the usual limits of such assays
HLA-A*02:01 [3] = assay: IEDB peptide-MHC binding, purified MHC/competitive/radioactivity; filed as Kd, often an IC50 or EC50 that approximates it; ≥ and ≤ were set here for values at or beyond the usual limits of such assays
HLA-A*02:03 [4] = assay: as above
HLA-A*02:17 = assay: as above
HLA-A*01:01 = assay: IEDB peptide-MHC binding, purified MHC/competitive/fluorescence; filed as Kd, often an IC50 or EC50 that approximates it; ≥ and ≤ were set here for values at or beyond the usual limits of such assays
HLA-A*02:06 = assay: IEDB peptide-MHC binding, purified MHC/competitive/radioactivity; filed as Kd, often an IC50 or EC50 that approximates it; ≥ and ≤ were set here for values at or beyond the usual limits of such assays
HLA-A*24:03 [5] = assay: IEDB peptide-MHC binding, purified MHC/competitive/fluorescence; filed as Kd, often an IC50 or EC50 that approximates it; ≥ and ≤ were set here for values at or beyond the usual limits of such assays
HLA-A*02:01 [6] = assay: as above; details: source organism: Orthohantavirus andesense
HLA-B*51:01 = assay: as above
HLA-A*69:01 = assay: as above; details: source organism: Orthohantavirus andesense
HLA-B*27:03 = assay: as above
HLA-B*39:01 = assay: as above
HLA-B*46:01 = assay: as above
HLA-B*18:01 = assay: as above
HLA-A*26:01 [7] = assay: as above
HLA-B*57:01 [8] = assay: as above
HLA-A*03:01 = assay: IEDB peptide-MHC binding, purified MHC/direct/fluorescence; filed as Kd, often an IC50 or EC50 that approximates it; ≥ and ≤ were set here for values at or beyond the usual limits of such assays
HLA-A*02:11 = assay: as above
HLA-A*02:19 = assay: as above
HLA-A*02:16 = assay: as above
HLA-A*29:02 [9] = assay: as above
HLA-A*02:03 [10] = assay: as above
HLA-A*02:12 = assay: as above
HLA-A*32:01 = assay: IEDB peptide-MHC binding, purified MHC/competitive/radioactivity; filed as Kd, often an IC50 or EC50 that approximates it; ≥ and ≤ were set here for values at or beyond the usual limits of such assays; details: source organism: Dengue virus 1 Brazil/97-11/1997
HLA-B*15:01 = assay: IEDB peptide-MHC binding, purified MHC/competitive/fluorescence; filed as Kd, often an IC50 or EC50 that approximates it; ≥ and ≤ were set here for values at or beyond the usual limits of such assays; details: source organism: Orthohantavirus tulaense
HLA-B*40:01 = assay: IEDB peptide-MHC binding, purified MHC/direct/fluorescence; filed as Kd, often an IC50 or EC50 that approximates it; ≥ and ≤ were set here for values at or beyond the usual limits of such assays; details: source organism: Orthohantavirus puumalaense
HLA-A*24:03 [11] = assay: as above
HLA-A*24:02 = assay: IEDB peptide-MHC binding, purified MHC/competitive/radioactivity; filed as Kd, often an IC50 or EC50 that approximates it; ≥ and ≤ were set here for values at or beyond the usual limits of such assays; details: source organism: Vaccinia virus WR
HLA-A*23:01 [12] = assay: as above; details: source organism: Vaccinia virus WR
HLA-A*23:01 [13] = assay: IEDB peptide-MHC binding, purified MHC/direct/fluorescence; filed as Kd, often an IC50 or EC50 that approximates it; ≥ and ≤ were set here for values at or beyond the usual limits of such assays; details: source organism: Orthohantavirus andesense
HLA-A*68:02 [14] = assay: as above; details: source organism: Orthohantavirus andesense
HLA-A*26:01 [15] = assay: as above; details: source organism: Orthohantavirus andesense
HLA-B*53:01 = assay: IEDB peptide-MHC binding, purified MHC/competitive/radioactivity; filed as Kd, often an IC50 or EC50 that approximates it; ≥ and ≤ were set here for values at or beyond the usual limits of such assays; details: source organism: Dengue virus 1 Brazil/97-11/1997
HLA-A*68:02 [16] = assay: as above; details: source organism: Dengue virus 1 Brazil/97-11/1997
HLA-A*68:02 [17] = assay: IEDB peptide-MHC binding, purified MHC/competitive/fluorescence; filed as Kd, often an IC50 or EC50 that approximates it; ≥ and ≤ were set here for values at or beyond the usual limits of such assays; details: source organism: Rickettsia sibirica 246
[18] = source organism: Dengue virus 4 Philippines/H241/1956
[19] = source organism: Dengue virus 1 Singapore/S275/1990
[20] = source organism: Dengue virus 1 Brazil/97-11/1997
[21] = source organism: Dengue virus 2 Jamaica/1409/1983
[22] = source organism: Dengue virus 3 China/80-2/1980
[23] = source organism: Dengue virus 3 Martinique/1243/1999
[24] = source organism: Dengue virus 2 Thailand/NGS-C/1944
[25] = source organism: Dengue virus 2 Peru/IQT2913/1996
[26] = source organism: Orthohantavirus andesense
[27] = source organism: Orthohantavirus tulaense

Sequence: NTSMAMTCIA
- Kd (HLA-B*57:01 [1]; [18]): 11700 nM

Sequence: LNRPDIGLY
- Kd (HLA-A*29:02 [2]; source organism: Campylobacter jejuni): 306 nM

Sequence: LLATSIFKL
- Kd (HLA-A*02:01 [3]; [19]): 5 nM
- Kd (HLA-A*02:03 [4]; [20]): 14.3 nM
- Kd (HLA-A*02:17; [19]): 22.7 nM

Sequence: SWNNHSYLY
- Kd (HLA-A*01:01; source organism: Mus musculus): 4280 nM
- Kd (HLA-A*29:02 [2]; source organism: Mus musculus): ≤ 0.1 nM

Sequence: QVSRPMFLY
- Kd (HLA-A*01:01; source organism: Influenza A virus (A/X-31(H3N2))): ≥ 20000 nM

Sequence: VLNPYMPSV
- Kd (HLA-A*02:01 [3]; [21]): 1.38 nM
- Kd (HLA-A*02:03 [4]; [21]): 6.6 nM
- Kd (HLA-A*02:17; [21]): 8.12 nM
- Kd (HLA-A*02:06; [21]): 6.19 nM

Sequence: QFLAPDDRY
- Kd (HLA-A*29:02 [2]; source organism: Vibrio cholerae 2740-80): 3.2 nM

Sequence: GIMTIDLDPV
- Kd (HLA-A*02:01 [3]; [22]): 11.7 nM
- Kd (HLA-A*02:03 [4]; [23]): 25.2 nM
- Kd (HLA-A*02:17; [22]): 2080 nM
- Kd (HLA-A*02:06; [23]): 83 nM

Sequence: MIIMLIPTV
- Kd (HLA-A*02:01 [3]; [24]): 3.89 nM
- Kd (HLA-A*02:03 [4]; [25]): 4.4 nM
- Kd (HLA-A*02:17; [24]): 0.634 nM
- Kd (HLA-A*02:06; [25]): 7.5 nM

Sequence: LTMDREMLY
- Kd (HLA-A*01:01; source organism: Bacillus cereus G9241): 5.1 nM

Sequence: PYKIPATVI
- Kd (HLA-A*24:03 [5]; source organism: Escherichia coli 536): 1060 nM

Sequence: YQLAVTIMA
- Kd (HLA-A*02:01 [3]; [21]): 42.3 nM
- Kd (HLA-A*02:17; [21]): 10800 nM
- Kd (HLA-A*02:06; [21]): 19.8 nM

Sequence: DWMDRIEEF
- Kd (HLA-A*02:01 [6]): ≥ 20 µM
- Kd (HLA-B*51:01; [26]): ≥ 20 µM
- Kd (HLA-A*69:01): ≥ 20 µM
- Kd (HLA-B*27:03; [26]): ≥ 20 µM
- Kd (HLA-B*39:01; [26]): ≥ 20 µM
- Kd (HLA-B*46:01; [26]): ≥ 20 µM
- Kd (HLA-B*18:01; [26]): ≥ 20 µM
- Kd (HLA-A*24:03 [5]; [26]): 156 nM
- Kd (HLA-A*26:01 [7]; [26]): ≥ 20 µM
- Kd (HLA-B*57:01 [8]; [26]): ≥ 20 µM
- Kd (HLA-A*03:01; source organism: Maporal virus): ≥ 20 µM
- Kd (HLA-A*02:11; source organism: Maporal virus): ≥ 20 µM
- Kd (HLA-A*02:19; source organism: Maporal virus): ≥ 20 µM
- Kd (HLA-A*02:16; source organism: Maporal virus): ≥ 20 µM
- Kd (HLA-A*29:02 [9]; source organism: Maporal virus): ≥ 20 µM
- Kd (HLA-A*02:03 [10]; source organism: Maporal virus): ≥ 20 µM
- Kd (HLA-A*02:12; source organism: Maporal virus): ≥ 20 µM

Sequence: LMLVAHYAI
- Kd (HLA-A*02:01 [3]; [19]): 6.46 nM
- Kd (HLA-A*32:01): 5.57 nM
- Kd (HLA-A*02:17; [19]): 15.8 nM

Sequence: AESICSYWL
- Kd (HLA-B*51:01; [27]): ≥ 20 µM
- Kd (HLA-B*27:03; [27]): ≥ 20 µM
- Kd (HLA-B*39:01; [27]): ≥ 20 µM
- Kd (HLA-B*46:01; [27]): ≥ 20 µM
- Kd (HLA-B*18:01; [27]): ≥ 20 µM
- Kd (HLA-A*26:01 [7]; [27]): ≥ 20 µM
- Kd (HLA-B*57:01 [8]; [27]): ≥ 20 µM
- Kd (HLA-B*15:01): ≥ 20 µM
- Kd (HLA-A*03:01; [27]): ≥ 20 µM
- Kd (HLA-A*02:11; [27]): ≥ 20 µM
- Kd (HLA-A*02:19; [27]): ≥ 20 µM
- Kd (HLA-A*02:16; [27]): ≥ 20 µM
- Kd (HLA-A*29:02 [9]; [27]): ≥ 20 µM
- Kd (HLA-A*02:03 [10]; [27]): ≥ 20 µM
- Kd (HLA-B*40:01): 0.3 nM
- Kd (HLA-A*02:12; [27]): ≥ 20 µM
- Kd (HLA-A*24:03 [11]; [27]): ≥ 20 µM

Sequence: AVSMANIFRG
- Kd (HLA-B*57:01 [1]; [21]): 37.2 nM

Sequence: AWISSMLLY
- Kd (HLA-A*29:02 [2]; source organism: Brucella suis ATCC 23445): 0.2 nM

Sequence: VMLLVLCAV
- Kd (HLA-A*02:01 [3]; [22]): 14.7 nM
- Kd (HLA-A*02:03 [4]; [23]): 775 nM
- Kd (HLA-A*02:17; [22]): ≥ 28700 nM
- Kd (HLA-A*02:06; [23]): 12.4 nM

Sequence: VTDTNKFDNY
- Kd (HLA-A*01:01; source organism: Vaccinia virus WR): 4.9 nM
- Kd (HLA-A*24:02): ≥ 70.3 µM
- Kd (HLA-A*23:01 [12]): ≥ 70 µM

Sequence: APKDLLPWY
- Kd (HLA-A*29:02 [2]; source organism: Bacillus anthracis str. A0488): 2540 nM

Sequence: YQGKTVWFV
- Kd (HLA-A*02:01 [3]; [18]): 9.87 nM
- Kd (HLA-A*02:17; [18]): 201 nM
- Kd (HLA-A*02:06; [18]): 12.3 nM

Sequence: EVLKAMSLY
- Kd (HLA-A*02:01 [6]): ≥ 20 µM
- Kd (HLA-B*51:01; [26]): ≥ 20 µM
- Kd (HLA-B*27:03; [26]): ≥ 20 µM
- Kd (HLA-B*39:01; [26]): ≥ 20 µM
- Kd (HLA-B*46:01; [26]): ≥ 20 µM
- Kd (HLA-B*57:01 [8]; [26]): ≥ 20 µM
- Kd (HLA-A*03:01; [26]): ≥ 20 µM
- Kd (HLA-A*02:11; [26]): ≥ 20 µM
- Kd (HLA-A*02:19; [26]): ≥ 20 µM
- Kd (HLA-A*23:01 [13]): ≥ 20 µM
- Kd (HLA-A*68:02 [14]): ≥ 20 µM
- Kd (HLA-A*02:03 [10]; [26]): ≥ 20 µM
- Kd (HLA-A*02:12; [26]): ≥ 20 µM
- Kd (HLA-A*24:03 [11]; [26]): ≥ 20 µM
- Kd (HLA-A*26:01 [15]): 3.9 nM

Sequence: EAVEDERFW
- Kd (HLA-B*53:01): 80.8 nM
- Kd (HLA-B*57:01 [1]; [20]): 84.5 nM

Sequence: KFGPYVSDY
- Kd (HLA-A*29:02 [2]; source organism: Yersinia pseudotuberculosis IP 31758): 110 nM

Sequence: GTSHNILVEV
- Kd (HLA-A*68:02 [16]): 15 nM
- Kd (HLA-B*57:01 [1]; [20]): 758 nM

Sequence: LLMLLPTALA
- Kd (HLA-A*02:01 [3]; [19]): 128 nM
- Kd (HLA-A*02:03 [4]; [20]): 49.9 nM
- Kd (HLA-A*02:17; [19]): 5210 nM

Sequence: FIHFDHVPI
- Kd (HLA-A*68:02 [17]): 24.7 nM
